Measured values: article PMC11931385, “Structural and functional analysis of cancer-associated missense variants in the retinoblastoma protein pocket domain” (The Journal of Biological Chemistry, 2025)
Changes are numbered by the printed parent chain. Names and notes keep the numbering of the source. No end group written: not given here. TMR = tetramethyl rhodamine dye

Columns and labels:
Test in all cases: fluorescence polarisation; 25 °C; unlabeled Rb^P titrated against 1.5 nM TMR-E2F1^TD or 7.5 nM TMR-E7^LxCxE; 25 mM Tris pH 8.0, 200 mM NaCl, 1 mM DTT, 0.1% Tween-20; 2 min incubation; quadratic fit; apparent Kd for the variants, Kd for WT
Details in all cases: both partners purified
Rb^P R741C = biological target: T1, Rb^P R741C (human, UniProt P06400 380-788, R741C)
T1 construct: also called variant 68
T1 sequence (looked up): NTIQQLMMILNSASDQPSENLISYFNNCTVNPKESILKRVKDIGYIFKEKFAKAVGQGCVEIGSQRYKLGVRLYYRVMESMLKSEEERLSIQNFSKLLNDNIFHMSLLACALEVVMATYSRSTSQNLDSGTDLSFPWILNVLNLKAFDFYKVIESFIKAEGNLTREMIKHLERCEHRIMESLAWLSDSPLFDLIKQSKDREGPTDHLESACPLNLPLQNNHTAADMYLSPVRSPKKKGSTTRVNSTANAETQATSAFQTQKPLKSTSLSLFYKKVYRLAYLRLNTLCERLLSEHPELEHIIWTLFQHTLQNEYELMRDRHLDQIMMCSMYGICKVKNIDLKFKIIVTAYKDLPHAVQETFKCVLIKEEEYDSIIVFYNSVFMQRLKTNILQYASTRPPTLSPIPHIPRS

Rb^P R763T = biological target: T2, Rb^P R763T (human, UniProt P06400 380-788, R763T)
T2 construct: also called variant 75
T2 sequence (looked up): T1 sequence (looked up) with C362R, R384T

Rb^P T738I = biological target: T3, Rb^P T738I (human, UniProt P06400 380-788, T738I)
T3 construct: also called variant 67
T3 sequence (looked up): T1 sequence (looked up) with T359I, C362R

Rb^P T620M = biological target: T4, Rb^P T620M (human, UniProt P06400 380-788, T620M)
T4 construct: also called variant 40
T4 sequence (looked up): T1 sequence (looked up) with T241M, C362R

Rb^P I703F = biological target: T5, Rb^P I703F (human, UniProt P06400 380-788, I703F)
T5 construct: also called variant 64
T5 sequence (looked up): T1 sequence (looked up) with I324F, C362R

B1: TMR-E2F1^TD, peptide of the E2F1 transactivation domain (peptide)
peptide: {TMR}-GEGIRDLFDCDFGDLTPLD
notes: also called E2F^TD; source: synthetic peptide, bought: GenScript
Rb^P R741C
  Kd: 23 nM
Rb^P R763T
  Kd: 37 nM
Rb^P T738I
  Kd: 60 nM
Rb^P T620M
  Kd: 24 nM
Rb^P I703F
  Kd: 63 nM

B2: TMR-E7^LxCxE, LxCxE peptide of the E7 oncoprotein from HPV (peptide)
peptide: DLYCYEQLN
modifications: also: TMR label, position not given here
notes: source: synthetic peptide, bought: GenScript
Rb^P R741C
  Kd: 14 nM
Rb^P R763T
  Kd: 21 nM
Rb^P T738I
  Kd: 18 nM
Rb^P T620M
  Kd: 6 nM
Rb^P I703F
  Kd: 16 nM
